Results from article PMC3289634.
Values joined by “and” are separate entries in the source; they are usually repeats but may differ in a detail not shown here. Equal values may be shown once.

Key:
[1] = molecular target: Max-E47 protein chimera (UniProt P61244); assay: SEC; Superdex-75 column, against molecular weight markers
[2] = molecular target: Max-E47 protein chimera (UniProt P61244); assay: AUC; sedimentation velocity, 20.0°C, 50,000 rpm, Rayleigh interference; loading concentrations 3-130 µM; 20 mM Tris pH 8.0, 0.1 M NaCl, 10 mM 2-mercaptoethanol, 5% (v/v) glycerol
[3] = molecular target: Max-E47 protein chimera (UniProt P61244); assay: AUC; sedimentation equilibrium, 16.0°C, 14,000-35,000 rpm, Rayleigh interference; 20 mM Tris pH 8.0, 0.15 M NaCl, 10 mM 2-mercaptoethanol; loading concentrations 5-25; the constant is of dimer to monomers
[4] = molecular target: Max-E47YF cloning variant (Max-E47-V51Y/V59F) (UniProt P61244); assay: as above

| stoichiometry N [1] | stoichiometry N [2] | stoichiometry N [3] | Kd [4] | stoichiometry N [4] | Substance |
| --- | --- | --- | --- | --- | --- |
| 2 | 2 and 4 | 2 and 4 | – | – | Max-E47 protein chimera (from UniProt P61244 22-36; P15923-2 349-400) (designed binder) |
| – | – | – | < 1 nM | 2 | Max-E47YF cloning variant (Max-E47-V51Y/V59F) (from UniProt P61244 22-36) (designed binder) |
